Results on 2 molecules are retold here after article PMC8646660 (EMBO Molecular Medicine, 2021).

Experiment [1] concerns the target T1, SARS-CoV-2 S receptor-binding domain (RBD), biotinylated (SARS-CoV-2, UniProt P0DTC2, biotin on the Avi tag (enzymatic, BirA)). Put plainly: cell-based or functional assay.
In experiment [2] the target is T1, SARS-CoV-2 S receptor-binding domain …. Nature of the experiment: BLI. Particulars: both partners purified.

B1: scFD20 (single-chain variable fragment of FD20) (scFv, V domains shown)
VH: QVQLQQSGAEVKKPGSSVKVSCKASGGTFSSYAFSWVRQAPGQGLEWMGRIIPILGIANYAQKFQGRVTITADISTSTAYMALSSLRSEDTAVYYCAKVEVNIGMDDYYYYYGMDVWGQGTTVTVSS
VL: not shown
notes: also called scFv of FD20; scFv FD20; source: E. coli MC1061, periplasmic release, purified (Ni-NTA)
As for B1, the “neutralisation of SARS-CoV-2 pseudovirus particles (pp), IC50” value in experiment [1] was found to be 117 nM. Moreover, binding in experiment [2] was put at a Kd of 5.6 nM.

B2: FD20 (IgG format) (antibody, V domains shown)
VH: B1 VH
VL: not shown
Turning to B2, the “microneutralisation of authentic SARS-CoV-2 hCoV-19/China/CAS-B001/2020, IC50” value in experiment [1] was 5.2 nM.
